Results taken from patent publication US20080044411A1.

Molecular target: GLP-1 R expressed in Rinm cells
Test: cell-based or functional assay

With “GLP-1 peptide (from UniProt P01275 98-128)” as the substance, how does the cAMP activity in Rinm cells, EC50 read?
Its cAMP activity in Rinm cells, EC50 is 0.4 nM.
